Experimental data reported in patent US20240209076A1 (KODIAK SCIENCES, published 2024).

Target: T1, human IL-6 (human, UniProt P05231 30-212)
T1 construct: IL-6 flowed over captured antibodies
Assay: SPR Biacore, supernatant Ab on Protein A chip, 37 C
Method: Antibodies were captured on a Protein A chip (GE) by injecting 1:20 cell supernatant dilutions at 10 μL/min for 60 seconds. […] The sensor chip was regenerated by a 60 seconds injection of 10 mM Glycine pH 1.7 at the flow rate of 50 μL/min. […] For this setup, 1 μg/mL of purified antibody was injected over a Protein A chip at 10 μL/min for 25 seconds. […] The sensor chip was regenerated by a 60 seconds injection of 10 mM Glycine pH 1.7 at flow rate of 50 μL/min. Data analysis for supernatant and purified samples were performed using BIAevaluation software (GE). All sensorgrams were double reference subtracted and fit using a 1:1 Langmuir binding model.

T1 sequence (P05231 30-212 limits assumed): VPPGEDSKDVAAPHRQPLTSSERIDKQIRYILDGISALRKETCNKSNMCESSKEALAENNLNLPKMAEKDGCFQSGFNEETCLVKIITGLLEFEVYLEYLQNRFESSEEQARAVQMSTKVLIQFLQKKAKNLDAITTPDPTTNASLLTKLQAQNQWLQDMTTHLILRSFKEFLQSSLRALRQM

Kd | koff | kon | Binder
0.233 nM | 0.000478 s⁻¹ | 2.05e+06 M⁻¹ s⁻¹ | anti-IL-6 antibody, heavy chain I51T, G66D / light chain M32L, M50D, N52S, M88Q (antibody, IgG1, V domains shown, Full IgG1 (Expi293); VL = variant III) VH: EVQLVESGGGLVQPGGSLRLSCAASGFTFSPFAMSWVRQAPGKGLEWVAKTSPGGSWTYYSDTVTDRFTFSLDTSKSTAYLQMNSLRAEDTAVYYCARQLWGYYALDIWGQGTLVTVSS VL: DIQLTQSPSSLSASVGDRVTITCSASISVSYLYWYQQKPGKAPKLLIYDDSSLASGVPSRFSGSGSGTDFTLTISSLQPEDFATYYCQQWSGYPYTFGQGTKVEIK
0.217 nM | 0.000401 s⁻¹ | 1.85e+06 M⁻¹ s⁻¹ | anti-IL-6 antibody, heavy chain I51S, G66D / light chain M32L, M50D, N52S, M88Q (antibody, IgG1, V domains shown, Full IgG1 (Expi293); VL = variant III) VH: EVQLVESGGGLVQPGGSLRLSCAASGFTFSPFAMSWVRQAPGKGLEWVAKSSPGGSWTYYSDTVTDRFTFSLDTSKSTAYLQMNSLRAEDTAVYYCARQLWGYYALDIWGQGTLVTVSS VL: DIQLTQSPSSLSASVGDRVTITCSASISVSYLYWYQQKPGKAPKLLIYDDSSLASGVPSRFSGSGSGTDFTLTISSLQPEDFATYYCQQWSGYPYTFGQGTKVEIK
4.84 nM | 0.00383 s⁻¹ | 791000 M⁻¹ s⁻¹ | anti-IL-6 antibody, heavy chain I51W, G66D / light chain M32L, M50D, N52S, M88Q (antibody, IgG1, V domains shown, Full IgG1 (Expi293); VL = variant III) VH: EVQLVESGGGLVQPGGSLRLSCAASGFTFSPFAMSWVRQAPGKGLEWVAKWSPGGSWTYYSDTVTDRFTFSLDTSKSTAYLQMNSLRAEDTAVYYCARQLWGYYALDIWGQGTLVTVSS VL: DIQLTQSPSSLSASVGDRVTITCSASISVSYLYWYQQKPGKAPKLLIYDDSSLASGVPSRFSGSGSGTDFTLTISSLQPEDFATYYCQQWSGYPYTFGQGTKVEIK
3.17 nM | 0.00484 s⁻¹ | 1.53e+06 M⁻¹ s⁻¹ | anti-IL-6 antibody, heavy chain S35F, G66D / light chain M32L, M50D, N52S, M88Q (antibody, IgG1, V domains shown, Full IgG1 (Expi293); VL = variant III) VH: EVQLVESGGGLVQPGGSLRLSCAASGFTFSPFAMFWVRQAPGKGLEWVAKISPGGSWTYYSDTVTDRFTFSLDTSKSTAYLQMNSLRAEDTAVYYCARQLWGYYALDIWGQGTLVTVSS VL: DIQLTQSPSSLSASVGDRVTITCSASISVSYLYWYQQKPGKAPKLLIYDDSSLASGVPSRFSGSGSGTDFTLTISSLQPEDFATYYCQQWSGYPYTFGQGTKVEIK
0.5 nM | 0.00104 s⁻¹ | 2.07e+06 M⁻¹ s⁻¹ | anti-IL-6 antibody, heavy chain I51H, G66D / light chain M32L, M50D, N52S, M88Q (antibody, IgG1, V domains shown, Full IgG1 (Expi293); VL = variant III) VH: EVQLVESGGGLVQPGGSLRLSCAASGFTFSPFAMSWVRQAPGKGLEWVAKHSPGGSWTYYSDTVTDRFTFSLDTSKSTAYLQMNSLRAEDTAVYYCARQLWGYYALDIWGQGTLVTVSS VL: DIQLTQSPSSLSASVGDRVTITCSASISVSYLYWYQQKPGKAPKLLIYDDSSLASGVPSRFSGSGSGTDFTLTISSLQPEDFATYYCQQWSGYPYTFGQGTKVEIK
0.753 nM | 0.00177 s⁻¹ | 2.35e+06 M⁻¹ s⁻¹ | anti-IL-6 antibody, heavy chain S35D, G66D / light chain M32L, M50D, N52S, M88Q (antibody, IgG1, V domains shown, Full IgG1 (Expi293); VL = variant III) VH: EVQLVESGGGLVQPGGSLRLSCAASGFTFSPFAMDWVRQAPGKGLEWVAKISPGGSWTYYSDTVTDRFTFSLDTSKSTAYLQMNSLRAEDTAVYYCARQLWGYYALDIWGQGTLVTVSS VL: DIQLTQSPSSLSASVGDRVTITCSASISVSYLYWYQQKPGKAPKLLIYDDSSLASGVPSRFSGSGSGTDFTLTISSLQPEDFATYYCQQWSGYPYTFGQGTKVEIK
4.04 nM | 0.0247 s⁻¹ | 6.1e+06 M⁻¹ s⁻¹ | anti-IL-6 antibody, heavy chain I51Y, G66D / light chain M32L, M50D, N52S, M88Q (antibody, IgG1, V domains shown, Full IgG1 (Expi293); VL = variant III) VH: EVQLVESGGGLVQPGGSLRLSCAASGFTFSPFAMSWVRQAPGKGLEWVAKYSPGGSWTYYSDTVTDRFTFSLDTSKSTAYLQMNSLRAEDTAVYYCARQLWGYYALDIWGQGTLVTVSS VL: DIQLTQSPSSLSASVGDRVTITCSASISVSYLYWYQQKPGKAPKLLIYDDSSLASGVPSRFSGSGSGTDFTLTISSLQPEDFATYYCQQWSGYPYTFGQGTKVEIK
0.349 nM | 0.000601 s⁻¹ | 1.72e+06 M⁻¹ s⁻¹ | anti-IL-6 antibody, heavy chain I51K, G66D / light chain M32L, M50D, N52S, M88Q (antibody, IgG1, V domains shown, Full IgG1 (Expi293); VL = variant III) VH: EVQLVESGGGLVQPGGSLRLSCAASGFTFSPFAMSWVRQAPGKGLEWVAKKSPGGSWTYYSDTVTDRFTFSLDTSKSTAYLQMNSLRAEDTAVYYCARQLWGYYALDIWGQGTLVTVSS VL: DIQLTQSPSSLSASVGDRVTITCSASISVSYLYWYQQKPGKAPKLLIYDDSSLASGVPSRFSGSGSGTDFTLTISSLQPEDFATYYCQQWSGYPYTFGQGTKVEIK
1.62 nM | 0.00147 s⁻¹ | 904000 M⁻¹ s⁻¹ | anti-IL-6 antibody, heavy chain S35I, G66D / light chain M32L, M50D, N52S, M88Q (antibody, IgG1, V domains shown, Full IgG1 (Expi293); VL = variant III) VH: EVQLVESGGGLVQPGGSLRLSCAASGFTFSPFAMIWVRQAPGKGLEWVAKISPGGSWTYYSDTVTDRFTFSLDTSKSTAYLQMNSLRAEDTAVYYCARQLWGYYALDIWGQGTLVTVSS VL: DIQLTQSPSSLSASVGDRVTITCSASISVSYLYWYQQKPGKAPKLLIYDDSSLASGVPSRFSGSGSGTDFTLTISSLQPEDFATYYCQQWSGYPYTFGQGTKVEIK
0.98 nM | 0.00161 s⁻¹ | 1.64e+06 M⁻¹ s⁻¹ | anti-IL-6 antibody, heavy chain I51L, G66D / light chain M32L, M50D, N52S, M88Q (antibody, IgG1, V domains shown, Full IgG1 (Expi293); VL = variant III) VH: EVQLVESGGGLVQPGGSLRLSCAASGFTFSPFAMSWVRQAPGKGLEWVAKLSPGGSWTYYSDTVTDRFTFSLDTSKSTAYLQMNSLRAEDTAVYYCARQLWGYYALDIWGQGTLVTVSS VL: DIQLTQSPSSLSASVGDRVTITCSASISVSYLYWYQQKPGKAPKLLIYDDSSLASGVPSRFSGSGSGTDFTLTISSLQPEDFATYYCQQWSGYPYTFGQGTKVEIK
